Results published in publication PMC6504684 (Frontiers in Pharmacology, 2019).

What was measured:
[1] = biological target: glycosylated human nAChR α9-ECD (human) (UniProt Q9UGM1); assay: radioligand binding
[2] = biological target: deglycosylated human nAChR α9-ECD (human) (UniProt Q9UGM1); assay: radioligand binding

Substance: α-conotoxin RgIA, globular isomer, C-terminally amidated (from UniProt P0C1D0 20-32) (peptide)
- Ki [1]: 13.3 µM
- Ki [2]: 2.7 µM
